4 molecules from patent US20240390468A1 (IMMUNOVACCINE TECHNOLOGIES, published 2024) can be followed below.

Some results are limits rather than exact numbers.

Assay [1] has as its target T1, MHC class 1 allele A*02:01.
T1 construct: also called HLA-A2; HLA-A*02:01
In words: REVEAL off-rate assay, HLA-A*02:01.

Assay [2] addresses T1, MHC class 1 allele A*02:01. As to the kind of experiment: REVEAL kinetic score, HLA-A*02:01.
Assay [3] has as its target T1, MHC class 1 allele A*02:01. In words: REVEAL on-rate assay, HLA-A*02:01.
In assay [4] the target is T1, MHC class 1 allele A*02:01. In words: REVEAL R-score, HLA-A*02:01.
The target in assay [5] is T1, MHC class 1 allele A*02:01. In words: REVEAL peptide-MHC binding assay, HLA-A*02:01.

For LMLGEFLKL [SurA2.M (survivin peptide antigen HLA-A2, LMLGEFLKL)], the “Off-rate T1/2” value in assay [1] is above 120 h. This molecule came in with a Kinetic score in assay [2] of 12.8. The “On-rate T1/2” value in assay [3] was 9.36 h. The molecule further gave a R-score in assay [4] of 22.1. Besides, the REVEAL score in assay [5] amounted to 172.
As for FLWGSKAHA (also called p270; M9-A2-270) [MAGE-A9 270 (MAGE-A9 peptide antigen 270, FLWGSKAHA)], the “Off-rate T1/2” value in assay [1] is above 120 h. This molecule also registered a Kinetic score in assay [2] of 12.7. In addition, the “On-rate T1/2” value in assay [3] was 9.43 h. The molecule also registered a R-score in assay [4] of 22.1. Further, the REVEAL score in assay [5] came to 173.
Consider KVAELVHFL (also called p111) [MAGE-A9 111 (MAGE-A9 peptide antigen 111, KVAELVHFL)], for which the “Off-rate T1/2” value in assay [1] is above 120 h. The Kinetic score in assay [2] was found to be 12.6. For the same molecule, in assay [3], the “On-rate T1/2” value was 9.52 h. In assay [4], the R-score is 20.9. The molecule further registered an REVEAL score in assay [5] of 166.
For the molecule ALSVMGVYV (also called p223; M9-A2-223) [MAGE-A9 223 (MAGE-A9 peptide antigen 223, ALSVMGVYV)], the “Off-rate T1/2” value in assay [1] was above 120 h. This molecule displayed a Kinetic score in assay [2] of 13.1. In addition, in assay [3], the “On-rate T1/2” value turned out to be 9.17 h. In assay [4], this molecule had a R-score of 26. Moreover, in assay [5], the REVEAL score was 199.
